Results on 6 molecules are retold here after publication PMC3107159, “Resistance to organic hydroperoxides requires ohr and ohrR genes in Sinorhizobium meliloti” (BMC Microbiology, 2011).

For series [1], the target named is T1, OhrR (Sinorhizobium meliloti, UniProt Q92RD0).
T1 construct: gene SMc00098; full-length ORF in pET22b+, C-terminal 6His tag kept, E. coli BL21(DE3), heparin column; homodimer
T1 sequence (Q92RD0 1-158): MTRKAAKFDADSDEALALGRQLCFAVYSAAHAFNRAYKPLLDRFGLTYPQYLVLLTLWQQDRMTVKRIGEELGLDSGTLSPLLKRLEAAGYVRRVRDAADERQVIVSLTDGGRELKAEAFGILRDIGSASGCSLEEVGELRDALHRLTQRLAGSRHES
The series is described as follows: non-reducing SDS-PAGE of oxidised protein. In kind it is binding. Conditions: covalent oxidation, reversible intersubunit disulfide dimer; 15 min incubation; 0.55 nM CuOOH as printed; reversed by DTT.

In series [2] the target is T2, OhrR (Sinorhizobium meliloti Rm1021 (S. meliloti chromosomal DNA; Rm1021?)) (UniProt Q92MX6).
T2 sequence: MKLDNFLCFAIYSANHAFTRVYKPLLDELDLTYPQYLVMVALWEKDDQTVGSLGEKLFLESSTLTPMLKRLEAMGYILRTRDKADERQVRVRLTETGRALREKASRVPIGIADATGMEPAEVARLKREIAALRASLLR
Nature of the series: EMSA. The settings on record: 20 mM Tris-HCl pH 8.0, 50 mM KCl, 1 mM EDTA, 50 uM BSA, room temperature 10 min, 20 ul, 20 pmol DNA, 0-100 pmol OhrR, 6% PAGE in Tris-borate, SYBR gold.

Series [3] concerns the target T3, OhrR (Sinorhizobium meliloti Rm1021 (S. …, UniProt Q92MX6 1-138)).
T3 sequence: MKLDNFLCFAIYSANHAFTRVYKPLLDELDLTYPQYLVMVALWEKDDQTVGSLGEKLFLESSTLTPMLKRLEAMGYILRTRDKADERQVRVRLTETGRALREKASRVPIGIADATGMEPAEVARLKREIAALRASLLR
Nature of the series: EMSA; 1 mM DTT; 20 mM Tris-HCl pH 8.0, 50 mM KCl, 1 mM EDTA, 50 uM BSA, room temperature 10 min, 20 ul; 20 pmol DNA, 0-100 pmol OhrR; 6% PAGE in Tris-borate, SYBR gold; 1 mM DTT in Fig 3C. The settings on record: protein: recombinant; tags: C-terminal 6xHis (pET22b+); chain copies: 2; label: none (SYBR gold stain); blunt. (Mobility shift assays separate free from complexed probe on a gel.)

For the molecule `CC(C)(OO)c1ccccc1` [CuOOH], the “non-reducing SDS-PAGE of oxidised protein” value at OhrR [1] is “Incubation of the protein with CuOOH or H2O2 led to the formation of a band”.
With “CATGACAGTCTCCTTCCTTGTGGTTGCCGGATTTATATATCGCAAGATTAAATAGCGCGCAAATTAATTTTGCAAATTGCTTTGCCGGCGTGAATTTGCGACAATGACATCAT (double strand) [ohr-ohrR intergenic region 113 bp]”, the binding result in series [2] was “binds”.

B1: M1 60 bp (dsDNA)
DNA 1: GGGGGGGAAGCTAGTCACCGCAAATTAATTTTGCGATACTAGAGAGATGCATATGGGGGG
DNA 2: CCCCCCATATGCATCTCTCTAGTATCGCAAAATTAATTTGCGGTGACTAGCTTCCCCCCC
As for B1, the binding result in the series with OhrR [3] is listed as “binds”.

B2: Mut2 60 bp (AAA to CCC in motif 1) (dsDNA)
DNA 1: GGGGGGGAAGCTAGTCACCGCCCCTTAATTTTGCGATACTAGAGAGATGCATATGGGGGG
DNA 2: CCCCCCATATGCATCTCTCTAGTATCGCAAAATTAAGGGGCGGTGACTAGCTTCCCCCCC
For the molecule B2, in the series with OhrR [3], the binding result is listed as “no binding”.

B3: Mut1 60 bp (GC to AA in motif 1) (dsDNA)
DNA 1: GGGGGGGAAGCTAGTCACCAAAAATTAATTTTGCGATACTAGAGAGATGCATATGGGGGG
DNA 2: CCCCCCATATGCATCTCTCTAGTATCGCAAAATTAATTTTTGGTGACTAGCTTCCCCCCC
Take B3: the binding result with OhrR [3] is recorded as “no binding”.

B4: M2 60 bp (dsDNA)
DNA 1: GGGGGGGAAGCTAGTCACCGCAAATTGCTTTGCCGATACTAGAGAGATGCATATGGGGGG
DNA 2: CCCCCCATATGCATCTCTCTAGTATCGGCAAAGCAATTTGCGGTGACTAGCTTCCCCCCC
Turning to B4, the binding result with OhrR [3] is given as “binds”.
